{"source": "paper PMC8649778", "key": {"[1]": {"biological_target": "APRc_(110–231)(D140N)His, active site mutant of the soluble domain of APRc (UniProt Q92FY8)", "experiment": "shift of migration in nonreducing SDS-PAGE with Western blot"}, "human IgG (human)": {"biological_target": "human IgG (human)", "experiment": "BLI"}}, "data": [{"substance": "APRc_(110–231)(D140N)His, active site mutant of the soluble domain of APRc (from UniProt Q92FY8 110-231) (domain or fragment)", "values": [{"measurement": "stoichiometry N", "setting": "[1]", "result": 2}]}, {"substance": "APRc_(110–231)His, soluble domain of APRc fused to a C-terminal His tag (from UniProt Q92FY8 110-231) (domain or fragment)", "values": [{"measurement": "Kd", "setting": "human IgG (human)", "result": 12.6, "unit": "µM"}]}]}
